Measurements as given in patent publication US20070078092A1 (CUREGENICS, published 2007).
Square brackets hold non-standard residues; d marks the D form. Ends that are not written are not given here. * marks the point of attachment. Cholesteryloxycarbonyl = CC(C)CCC[C@@H](C)[C@H]1CC[C@H]2[C@@H]3CC=C4C[C@@H](OC(=O)*)CC[C@]4(C)[C@H]3CC[C@]12C; hLeu = CC(C)CC[C@H](N)C(=O)O; Orn = NCCC[C@H](N)C(=O)O; Nva = CCC[C@H](N)C(=O)O; Dap = NC[C@H](N)C(=O)O

How the values were obtained:
Test in all cases: cell-based or functional assay
protein kinase A (PKA) [1] = target: protein kinase A (PKA)
protein kinase B (PKB) [2] = target: protein kinase B (PKB)
protein kinase A (PKA) [3] = target: protein kinase A (PKA); remark: listed apart in the source
protein kinase B (PKB) [4] = target: protein kinase B (PKB); remark: listed apart in the source

## RPR[Orn]E(NH‑(CH2)2‑NH‑SO2‑Isoquinoline)SF [PTR 6132]
Protein kinase A (PKA) [1]
  IC50, PKA kinase inhibition: 12 nM
Protein kinase B (PKB) [2]
  IC50, PKB kinase inhibition: 20 nM

B1: PTR 6184 (peptide)
peptide: RPR[Nva]YA[hLeu]-NH2
modifications: N-terminus assumed
SMILES: CCC[C@H](NC(=O)[C@H](CCCNC(=N)N)NC(=O)[C@@H]1CCCN1C(=O)[C@@H](N)CCCNC(=N)N)C(=O)N[C@@H](Cc1ccc(O)cc1)C(=O)N[C@@H](C)C(=O)N[C@@H](CCC(C)C)C(N)=O
Protein kinase A (PKA) [1]
  IC50, PKA kinase inhibition: > 50000 nM
Protein kinase B (PKB) [2]
  IC50, PKB kinase inhibition: 300 nM

B2: PTR 6154 (peptide)
peptide: RPR[Nva]Y[Dap][hLeu]-NH2
modifications: N-terminus assumed
SMILES: CCC[C@H](NC(=O)[C@H](CCCNC(=N)N)NC(=O)[C@@H]1CCCN1C(=O)[C@@H](N)CCCNC(=N)N)C(=O)N[C@@H](Cc1ccc(O)cc1)C(=O)N[C@@H](CN)C(=O)N[C@@H](CCC(C)C)C(N)=O
Protein kinase A (PKA) [1]
  IC50, PKA kinase inhibition: > 50000 nM
Protein kinase B (PKB) [2]
  IC50, PKB kinase inhibition: 900 nM

B3: PTR 6316 (peptide)
peptide: RQIKIWFQNRRMKWKKRPR[Nva]Y[Dap][hLeu]K(Cholesteryloxycarbonyl)-NH2
modifications: N-terminus assumed
SMILES: CCC[C@H](NC(=O)[C@H](CCCNC(=N)N)NC(=O)[C@@H]1CCCN1C(=O)[C@H](CCCNC(=N)N)NC(=O)[C@H](CCCCN)NC(=O)[C@H](CCCCN)NC(=O)[C@H](Cc1c[nH]c2ccccc12)NC(=O)[C@H](CCCCN)NC(=O)[C@H](CCSC)NC(=O)[C@H](CCCNC(=N)N)NC(=O)[C@H](CCCNC(=N)N)NC(=O)[C@H](CC(N)=O)NC(=O)[C@H](CCC(N)=O)NC(=O)[C@H](Cc1ccccc1)NC(=O)[C@H](Cc1c[nH]c2ccccc12)NC(=O)[C@@H](NC(=O)[C@H](CCCCN)NC(=O)[C@@H](NC(=O)[C@H](CCC(N)=O)NC(=O)[C@@H](N)CCCNC(=N)N)[C@@H](C)CC)[C@@H](C)CC)C(=O)N[C@@H](Cc1ccc(O)cc1)C(=O)N[C@@H](CN)C(=O)N[C@@H](CCC(C)C)C(=O)N[C@@H](CCCCNC(=O)O[C@H]1CC[C@@]2(C)C(=CC[C@H]3[C@@H]4CC[C@H]([C@H](C)CCCC(C)C)[C@@]4(C)CC[C@@H]32)C1)C(N)=O
Protein kinase A (PKA) [3]
  IC50, in vitro kinase assay PKA: 5000 nM
Protein kinase B (PKB) [4]
  IC50, in vitro kinase assay PKB: 100 nM

## Cholesteryloxycarbonyl-RPR[Orn]E(aminopropylmercaptoisoquinoline)SF-NH2 [PTR 6300]
Protein kinase A (PKA) [3]
  IC50, in vitro kinase assay PKA: 300 nM
